Test results: patent publication US20260055369A1, “METHOD FOR GENERATING CELLS OF THE T CELL LINEAGE WITH ENGINEERING BROADLY REACTIVE HUMAN NOTCH LIGAND” (H. Lee Moffitt Cancer Center and Research Institute, Inc., priority 2022, published 2026)

Legend:
Notch1 [1] = experiment: Kinetics for Notch activation assay (time course, CHO-K1 N1-Gal4); assay type: cell-based; settings: immobilized at 50 nM; most pronounced in first 4 to 8 hours
Protocol: 96-well tissue culture plates (Coastar) were pre-coated using ligand-oriented coupling as described above with 50 nM of DLL4 biotinylated variants. CHO-K1 N1-Gal4 reporter cells were detached with trypsin-EDTA, washed with DPBS, and 200 μL of α-MEM media containing 30,000 cells were added into wells. Notch activation was analyzed as end-points for 0, 4, 8, 12, 16, 20, and 24-hour measurements. Desired time point wells containing CHO-K1 N1-Gal4 reporter cells were washed once with 200 μL DPBS, detached with trypsin-EDTA, and quenched with 200 μL of α-MEM media. Next, reporter cells were resuspended and analyzed by flow cytometry reading the fluorescence of H2B-mCitrine (BD Accuri C6 Plus). Every time point represents the mean fluorescence intensity of Notch activation as percentage+s.d. of three independent biological replicates. Notch activation was reference-subtracted from a well containing streptavidin, BSA and CHO-K1 N1-Gal4 cells.
Target sequence in this assay (P46531 295-488 limits assumed): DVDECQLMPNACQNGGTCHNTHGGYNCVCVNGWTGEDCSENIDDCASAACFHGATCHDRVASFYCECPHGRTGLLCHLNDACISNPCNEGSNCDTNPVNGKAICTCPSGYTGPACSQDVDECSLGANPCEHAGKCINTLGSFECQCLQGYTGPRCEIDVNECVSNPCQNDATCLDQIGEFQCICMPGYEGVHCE

Notch1 [2] = experiment: U2OS luciferase reporter assay, ligands on streptavidin plates; assay type: cell-based, human; settings: 50 nM immobilized
Protocol: (§1) For U2OS reporter cells, approximately 5×10E5 cells were plated into 6-well plates (Falcon) and let to adhere overnight at 37° C., 5% CO2 in DMEM media (Cytiva). On day two, media was replaced with serum-free DMEM and cells transfected with luciferase vectors. Cationic lipoplexes were generated for 15 min at room temperature by mixing 10 μL of Lipofectamine 2000 (Invitrogen), 2.5 μg of Gal4-firefly luciferase reporter, and 50 ng of pRL-TK Renilla luciferase vector as internal control (ratio 1:5, Lipo:DNA). On day three, streptavidin plates were coupled with DLL4 ligands like described above using 10-fold serial dilutions starting at 50 nM, and transfected U2OS cells were detached with Trypsin-EDTA, washed with DPBS, and counted in the microscope. Twenty-thousand reporter cells were added to wells using 200 μL of DMEM media containing 2 μg/mL of doxycycline (Sigma) to induce Notch-Gal4 expression. Next, signaling plates were incubated for 24 hours at 37° C. and 5% CO2. On day four, luciferase firefly and Renilla signals were determined with Dual-Glo luciferase assay system (Promega) using a GloMax luminometer (Promega). A luminescence ratio firefly:Renilla was determined for every well and normalized to the signal of a non-related control protein (PA domain of RNF128). Notch activation is represented as the mean fold-change over the control±s.d. of three independent biological replicates.
Target sequence in this assay (P46531 19-1664 limits assumed): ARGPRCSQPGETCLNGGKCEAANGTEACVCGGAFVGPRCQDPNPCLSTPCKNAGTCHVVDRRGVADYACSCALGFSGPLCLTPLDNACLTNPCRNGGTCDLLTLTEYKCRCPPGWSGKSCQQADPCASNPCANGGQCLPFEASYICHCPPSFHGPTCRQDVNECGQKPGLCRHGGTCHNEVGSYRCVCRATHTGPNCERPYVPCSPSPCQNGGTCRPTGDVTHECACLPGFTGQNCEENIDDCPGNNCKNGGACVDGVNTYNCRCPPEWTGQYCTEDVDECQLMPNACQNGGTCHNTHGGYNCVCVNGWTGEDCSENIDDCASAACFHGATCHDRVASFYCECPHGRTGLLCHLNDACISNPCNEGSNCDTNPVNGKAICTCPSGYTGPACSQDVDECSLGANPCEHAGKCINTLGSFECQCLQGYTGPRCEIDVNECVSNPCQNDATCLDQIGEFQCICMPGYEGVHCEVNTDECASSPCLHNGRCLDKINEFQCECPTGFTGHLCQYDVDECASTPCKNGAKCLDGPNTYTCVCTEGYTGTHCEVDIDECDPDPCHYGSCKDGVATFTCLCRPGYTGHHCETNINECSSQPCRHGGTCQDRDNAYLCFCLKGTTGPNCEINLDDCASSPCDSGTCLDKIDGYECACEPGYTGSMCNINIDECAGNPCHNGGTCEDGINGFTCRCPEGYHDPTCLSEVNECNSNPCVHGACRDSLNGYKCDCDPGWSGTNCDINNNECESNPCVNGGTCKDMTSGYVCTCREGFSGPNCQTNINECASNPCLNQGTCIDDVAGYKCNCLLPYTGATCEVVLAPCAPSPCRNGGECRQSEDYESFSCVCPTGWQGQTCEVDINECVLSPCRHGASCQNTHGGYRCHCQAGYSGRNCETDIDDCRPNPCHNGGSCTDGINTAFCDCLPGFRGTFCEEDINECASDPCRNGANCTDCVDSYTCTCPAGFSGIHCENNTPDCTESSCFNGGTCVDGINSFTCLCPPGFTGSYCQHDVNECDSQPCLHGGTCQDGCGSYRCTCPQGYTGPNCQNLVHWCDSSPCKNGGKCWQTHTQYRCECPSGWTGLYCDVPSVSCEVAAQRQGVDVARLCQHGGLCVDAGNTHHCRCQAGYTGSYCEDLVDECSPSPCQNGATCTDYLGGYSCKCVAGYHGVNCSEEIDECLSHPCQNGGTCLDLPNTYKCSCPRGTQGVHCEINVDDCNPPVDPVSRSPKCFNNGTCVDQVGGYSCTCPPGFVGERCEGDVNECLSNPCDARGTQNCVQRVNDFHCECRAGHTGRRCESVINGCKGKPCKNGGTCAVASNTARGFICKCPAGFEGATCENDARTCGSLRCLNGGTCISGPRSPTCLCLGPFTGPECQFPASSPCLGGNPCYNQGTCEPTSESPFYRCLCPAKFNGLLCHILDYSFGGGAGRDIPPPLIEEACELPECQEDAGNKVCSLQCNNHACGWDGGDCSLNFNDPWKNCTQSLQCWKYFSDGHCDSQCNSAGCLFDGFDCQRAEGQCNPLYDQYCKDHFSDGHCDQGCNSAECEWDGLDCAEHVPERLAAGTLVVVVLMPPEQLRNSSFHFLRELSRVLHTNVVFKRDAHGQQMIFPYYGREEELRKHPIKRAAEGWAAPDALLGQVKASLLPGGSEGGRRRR
Target sequence in this assay (P46531 1665-1756 limits assumed): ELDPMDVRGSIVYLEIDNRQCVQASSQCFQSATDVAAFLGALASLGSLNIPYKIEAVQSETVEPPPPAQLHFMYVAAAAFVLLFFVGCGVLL

Notch2 [3] = experiment: as above; assay type: cell-based, human; settings: 50 nM immobilized
Protocol: as §1
Target sequence in this assay (Q04721 221-530 limits assumed): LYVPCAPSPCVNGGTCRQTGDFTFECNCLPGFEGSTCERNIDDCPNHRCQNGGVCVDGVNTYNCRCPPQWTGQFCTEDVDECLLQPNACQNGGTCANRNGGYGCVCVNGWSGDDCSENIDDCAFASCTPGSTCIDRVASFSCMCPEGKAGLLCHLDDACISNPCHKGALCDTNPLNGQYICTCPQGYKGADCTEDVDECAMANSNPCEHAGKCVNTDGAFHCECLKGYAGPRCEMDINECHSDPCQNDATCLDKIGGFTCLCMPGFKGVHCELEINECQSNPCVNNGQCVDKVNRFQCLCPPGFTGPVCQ

Notch3 [4] = experiment: as above; assay type: cell-based, human; settings: 50 nM immobilized
Notch3, sequence (Q9UM47 197-505 limits assumed): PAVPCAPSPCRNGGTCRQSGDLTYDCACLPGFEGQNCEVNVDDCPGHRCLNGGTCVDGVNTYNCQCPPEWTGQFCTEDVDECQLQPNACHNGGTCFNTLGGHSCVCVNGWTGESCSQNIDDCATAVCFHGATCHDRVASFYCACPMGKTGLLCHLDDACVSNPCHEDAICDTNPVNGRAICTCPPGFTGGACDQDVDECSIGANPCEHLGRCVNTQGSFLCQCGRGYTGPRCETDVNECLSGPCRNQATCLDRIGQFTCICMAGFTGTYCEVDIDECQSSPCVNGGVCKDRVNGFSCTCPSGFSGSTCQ
Protocol: as §1

Notch1 [5] = experiment: Notch inhibition, U2OS luciferase reporter on WT DLL4 coated plates; assay type: cell-based, human; settings: plates coated with 50 nM WT DLL4, 10-fold dilutions from 3,000 nM
Protocol: (§2) For U2OS cells, on day one, 5×10^5 cells were plated in 6-well tissue culture plates. On day two, U2OS cells were transfected as described above. On day three, 96-well plates (Coastar) were coated with streptavidin and biotinylated WT DLL4 at 50 nM as described above. Next, U2OS reporter cells were detached with trypsin-EDTA and diluted at 200,000 cells/mL in DMEM media. Ten-fold serial dilutions of soluble DLL4 variants starting at 6,000 nM were prepared in DPBS and used to pre-block reports cells following the same protocol described above. Two-hundred microliters of inhibition reactions were added to 96-well plates pre-coated with biotinylated WT DLL4 ligand at 50 nM, and assay plates incubated for 24 hours at 37° C. and 5% CO2. On day fourth, luciferase signals were measured with Dual-Glo luciferase assay system (Promega) using a GloMax luminometer (Promega). Doxycycline at 2 μg/mL was maintained to […]. A ratio between firefly and Renilla luciferase was calculated, and Notch activation normalized to wells where inhibitors were non-added. The data represent fold-change of Notch activation as percentage, relative to Notch activation in the absence of inhibitors±s.d. of three independent biological replicates.
Target sequence in this assay (P46531 19-1664 limits assumed): as the sequence (P46531 19-1664 limits assumed) above
Target sequence in this assay (P46531 1665-1756 limits assumed): as the sequence (P46531 1665-1756 limits assumed) above

Notch2 [6] = experiment: as above; assay type: cell-based, human; settings: plates coated with 50 nM WT DLL4, 10-fold dilutions from 3,000 nM
Protocol: as §2
Target sequence in this assay (Q04721 26-1677 limits assumed): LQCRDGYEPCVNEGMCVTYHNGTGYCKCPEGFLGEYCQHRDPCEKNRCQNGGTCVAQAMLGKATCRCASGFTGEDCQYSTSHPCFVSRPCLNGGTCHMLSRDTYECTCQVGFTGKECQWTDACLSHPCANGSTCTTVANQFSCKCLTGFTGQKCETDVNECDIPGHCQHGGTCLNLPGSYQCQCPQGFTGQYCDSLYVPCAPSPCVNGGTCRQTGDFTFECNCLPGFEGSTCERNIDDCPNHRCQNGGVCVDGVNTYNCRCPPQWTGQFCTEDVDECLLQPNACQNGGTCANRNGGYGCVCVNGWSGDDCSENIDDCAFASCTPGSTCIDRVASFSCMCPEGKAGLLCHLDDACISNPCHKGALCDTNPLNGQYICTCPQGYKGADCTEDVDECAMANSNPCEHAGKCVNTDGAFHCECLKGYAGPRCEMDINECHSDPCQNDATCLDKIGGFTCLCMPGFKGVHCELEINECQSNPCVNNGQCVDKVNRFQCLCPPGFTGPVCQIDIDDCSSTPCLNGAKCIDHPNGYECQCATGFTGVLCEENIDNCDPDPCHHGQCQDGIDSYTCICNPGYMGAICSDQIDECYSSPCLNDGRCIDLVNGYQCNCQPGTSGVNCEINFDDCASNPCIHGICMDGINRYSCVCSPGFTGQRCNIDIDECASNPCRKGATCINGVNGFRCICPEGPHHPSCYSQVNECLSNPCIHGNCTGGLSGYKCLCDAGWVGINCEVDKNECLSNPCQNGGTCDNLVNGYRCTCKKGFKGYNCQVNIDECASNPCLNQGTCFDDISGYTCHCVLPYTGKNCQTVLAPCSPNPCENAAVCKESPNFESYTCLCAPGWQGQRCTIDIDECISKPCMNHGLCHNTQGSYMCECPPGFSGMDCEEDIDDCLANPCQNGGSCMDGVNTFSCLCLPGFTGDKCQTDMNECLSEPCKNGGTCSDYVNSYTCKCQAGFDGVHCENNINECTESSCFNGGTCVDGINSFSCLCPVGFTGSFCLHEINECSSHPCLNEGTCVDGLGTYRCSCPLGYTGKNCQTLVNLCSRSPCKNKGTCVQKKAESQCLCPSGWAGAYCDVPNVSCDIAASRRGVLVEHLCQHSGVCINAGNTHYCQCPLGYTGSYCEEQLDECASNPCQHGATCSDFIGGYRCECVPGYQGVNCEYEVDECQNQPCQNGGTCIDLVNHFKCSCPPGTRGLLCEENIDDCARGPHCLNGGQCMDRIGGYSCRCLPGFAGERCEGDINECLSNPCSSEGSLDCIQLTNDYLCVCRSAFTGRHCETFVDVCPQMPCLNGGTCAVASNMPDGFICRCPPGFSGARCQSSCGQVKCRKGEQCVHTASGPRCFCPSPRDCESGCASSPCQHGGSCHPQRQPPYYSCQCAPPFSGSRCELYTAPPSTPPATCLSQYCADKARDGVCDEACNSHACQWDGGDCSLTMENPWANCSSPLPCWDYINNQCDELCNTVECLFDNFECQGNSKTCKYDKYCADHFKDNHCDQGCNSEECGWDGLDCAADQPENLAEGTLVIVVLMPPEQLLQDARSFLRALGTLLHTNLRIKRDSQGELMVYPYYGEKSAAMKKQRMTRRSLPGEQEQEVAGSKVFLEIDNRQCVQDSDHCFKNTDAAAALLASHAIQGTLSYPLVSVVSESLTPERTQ

Notch3 [7] = experiment: as above; assay type: cell-based, human; settings: plates coated with 50 nM WT DLL4, 10-fold dilutions from 3,000 nM
Protocol: as §2

CD8+ T cells [8] = experiment: Co-culture assay for IFNγ in T cells (K32 aAPCs expressing ligand); assay type: cell-based, human; settings: 96 h, P=0.047
Protocol: Functional assays for human CD8^+ T cells were performed in co-culture with K562 cells expressing human CD32 (K32 cells) generated as described before7. Briefly, cells were γ-irradiated (100Gy) and washed twice with PBS before being loaded with OKT3 (0.0125-0.5 μg/mL, BioXcell) antibody at RT for 10 min. Human CD8^+ T cells were negatively isolated from PBMC and labeled with 5 μM of Cell Trace Violet (Invitrogen) according to manufacturer's specifications. Next, CD8^+ T cells were co-cultured with K32 cells at ratio 1:10 (T cell:K32). The frequency of proliferating T cells was determined after 96 hours by flow cytometry using a CytoFLEX II (Beckman Coulter). Zombie Green (Biolegend) was used for life/dead cell staining to discard dead cells from the analysis. A set of samples were additionally incubated with Golgi stop (BD) at 0.5 μL/well for 5 hours and washed with PBS for detection of intracellular IFNγ using anti-hIFNγ APC antibody (Biolegend). The frequency of IFNγ positive cells was analyzed by flow cytometry (CytoFLEX II, Beckman Coulter). Dead cells were excluded from the analysis by staining with Zombie green (Biolegend). The data represent the mean percentage of proliferating T cells or IFNγ^+ T cells±s.e.m. of four independent biological replicates.

CD8+ T cells [9] = experiment: Quantitative real-time PCR of activation markers in CD8+ T cells; assay type: cell-based, human; settings: K32 loaded with 0.0125 μg/mL OKT3, over four days
Protocol: Human CD8^+ T cells were co-cultured with K32-DLL4 cells for 96 hours and positively enriched by MACS column (Invitrogen Kit). Total RNA was isolated from CD8^+ T cells using TRIzol (Life Technologies). Reverse transcription reaction was performed using Verso cDNA Synthesis Kit (Thermo Scientific). Quantitative PCR reactions were prepared by using Bio-Rad SYBR green master mix and performed on an Applied Biosystems thermocycler (7900 HT). Relative expression was calculated using the ΔΔCt method and normalized to B2M levels. The data represent the mean quantity of mRNA (in-fold) for different T cell markers±s.e.m. of four independent biological replicates. Pair primers used were: […]

B1: Delta^MAX: engineered human DLL4 consensus variant with 10 mutations combining DLL4.v1 and DLL4.v2 mutations; sequence matches SEQ ID NO: 4/10 (protein)
chain: SSVFQLQLQEFINERGVLASGRPCEPGCRTFFRVCLKHFQAVVSPGPCTFGTVSTPVLGTNSFAVRDDSSGGGRNPLQLPLNFTWPGTFSLIIEAWHAPGDDLRPEALPPDALISKFAIQGSLAVGQNWLLDEQTSTLTRLRYSYRVICSDNYYGDNCSRLCKKRNDYFGHYVCQPDGNPSCLPGWTGEYCQQPICLSGCHEQNGYCSKPAECLCRPGWQGRLCNECIPHPGCRHGTCSTPWQCLCDEGWGGLYCDQDLNYCTHHSPCKNGATCRNSGPRSYTCTCRPGYTGVDCELELSECDSNPCRNGGSCKDQEDGYHCLCPPGYYGLHCEHSTLSCADSPCFNGGSCRERNQGANYACECPPNFTGSNCE
B1 was tested, and the “speed of Notch1 activation compared to WT DLL4” value (Notch1 [1]) was “more rapidly”, the “increase in Notch1 signaling vs WT DLL4” value (Notch1 [2]) was 2 fold and the “increase in Notch2 signaling vs WT DLL4” value (Notch2 [3]) was 2.5 fold. For the same molecule, the “increase in Notch3 signaling vs WT DLL4” value (Notch3 [4]) was 3 fold, the “effect of soluble competitor on Notch1 signaling” value (Notch1 [5]) was “dose-dependent decreases” and the “effect of soluble competitor on Notch2 signaling” value (Notch2 [6]) was “dose-dependent decreases”. For the same molecule, the “effect of soluble competitor on Notch3 signaling” value (Notch3 [7]) was “dose-dependent decreases”, the “increase of IFNγ secretion from CD8+ T cells compared with WT DLL4” value (CD8+ T cells [8]) was 10-15% and the “Granzyme B mRNA level vs WT DLL4 or mock” value (CD8+ T cells [9]) was “increased levels”. The “Hes-4 (Notch target) expression vs WT DLL4 or mock” value (CD8+ T cells [9]) was “elevated expression” and the “IFNγ mRNA level vs WT DLL4 or mock” value (CD8+ T cells [9]) was “increased levels”.
